Where no end group is shown, it is not given here. The star is where a group is joined. Prodan = Prodan fluorogenic core conjugated to Cys (C*)
How the values were obtained:
[1] = biological target: glutathione S-transferase (GST); assay: ITC
[2] = biological target: glutathione S-transferase (GST); assay: other fluorescence titration

Kd [1]: 2.4 µM
Kd [2]: 5.2 µM
Binder: NTVSC(Prodan)HGF [Prodan-evolver NTVSC*HGF (1)]

Source: paper PMC5077683
